In the RNAGym collection of RNA variant scans (doi:10.7554/elife.90254):

B1: LINE1-mini (parent)
chain: GGCAGAGCUCAACACAGCGUGGCAAAGUGGCUGUGGCUAGACUGCC

Variants of: B1
Assay: self-cleavage, relative activity (ratio to wild type); higher = more cleavage; in vitro, sequencing; the parent is a self-cleaving ribozyme

Variant	self-cleavage
A25G G36U	0.05
A6G G40U	0.1
G2A G30A	1.67
G30C G44U	0.09
U20G U34A	0.06
A39U A41U	0.67
U38C G44C	0.32
G7A C45G	0.29
G35C C46G	0.06
C8U G21C	0.25
A12G C37G	0.02
U9C U20G	0.03
G27A C31G	0.2
A26U C46G	1.18
C8A C10A	0.04
G7C U43G	0.05
C18G G33U	0.07
G19C U34A	0.28
C31U C46U	0.23
U34G C37A	0.06
A16G G17A	0.15

Variant	self-cleavage
A14C C45G	0.11
G27U C37A	0.03
C8G U32G	0.06
A16G G27A	0.78
A24U G29A	1.72
A24U G29U	1.84
G7A G35U	0.11
A6C G44A	0.22
A4G G40C	0.1
A16G G19U	0.47
G27U G36A	0.4
C10G G30U	0.22
A11U A41C	0.04
A11U A41U	0.27
G29U A39G	0.06
C10U G44C	0.16
G17A G29A	0.37
G5C C10U	0.04
A41G C42G	0.06
A12U U28A	0.2
G21A C46U	1.39

Variant	self-cleavage
G21A G44A	0.98
G21A G30U	2.01
C8A C15G	0.22
G1U	0.33
C23U G27C	0.73
G30U C31G	0.06
G1U C18G	0.06
A12G G19A	0.17
C15U C23G	0.81
A14U C18G	0.19
G2A U9G	0.25
C15U U20C	0.32
U20C A25U	1.02
C37U G44C	0.05
G1U A16U	0.05
G29U G33C	0.06
C37U U43C	0.06
G33A G35U	0.1
G5C U28G	0.02
G30A U32A	0.13
G5U G30U	0.26

Variant	self-cleavage
G30U G35U	0.08
C8U C42G	0.13
C15U C31A	0.06
C15U C31U	0.09
G29U G30A	1.92
G17U G29C	0.39
A12U C31U	0.09
C8G G21U	0.13
A4U A26G	0.14
C10G U38A	0.06
G2U A14U	0.04
G7A G33A	0.29
G1U C8U	0.12
G27U G44C	0.82
C8U C37U	0.2
A4C C23U	0.16
G19U G35U	0.16
A4U G22C	0.08
U20C U28G	0.93
A25U U28A	0.5
